Measurements taken from patent US20100169988A1, “MEANS AND METHODS FOR ISOLATING AND DETERMINING NOVEL TARGETS FOR THE TREATMENT OF NEURODEGENERATIVE, NEUROLOGICAL OR NEUROPSYCHIATRIC DISORDERS AND COMPOSITIONS COMPRISING THE SAME” (priority 2006, published 2010).

How the values were obtained:
APP-TAP-AICD (human) [1] = target: APP-TAP-AICD (human) (UniProt P05067); experiment: streptavidin purification of APP-TAP-AICD from brain homogenate; iTRAQ 116/114, transgenic mouse 75 vs control mouse 72; MALDI-TOF/TOF
APP-TAP-AICD (human) [2] = target: APP-TAP-AICD (human) (UniProt P05067); experiment: streptavidin purification of APP-TAP-AICD from brain homogenate; LTQ-FT semiquantitative method, transgenic mouse 75 vs control mouse 72

Substance: Syntaxin-1B2 (from UniProt P61264 1-288)
- iTRAQ ratio (APP-TAP-AICD (human) [1]): 4.57

Substance: Heat shock protein HSP 90-alpha (HSP 86) (Tumor specific transplantation 86 kDa antigen) (from UniProt P07901 2-733)
- iTRAQ ratio (APP-TAP-AICD (human) [1]): 4.22

Substance: similar to heat shock protein 1, alpha isoform 1
- probability that this protein is enriched (APP-TAP-AICD (human) [2]): 1

Substance: fructose-bisphosphate aldolase A homolog (Adult male testis cDNA, RIKEN clone 4933425L11 product) (enzyme)
- probability that this protein is enriched (APP-TAP-AICD (human) [2]): 0.87

Substance: Lrrk1 protein (Fragment), Q3UHC2 1-2014
- probability that this protein is enriched (APP-TAP-AICD (human) [2]): 0.88
